Target: GFP-MAP7 (UniProt O88735)
Experiment: co-IP; HeLa cells transfected with GFP/GFP-MAP7, HA-KLC2 and HA-KIF5C (WT, ElbowLock, DeltaElbow); GFP-TRAP beads; western blot with anti-GFP and anti-HA

Sequence of GFP-MAP7 (O88735 whole entry): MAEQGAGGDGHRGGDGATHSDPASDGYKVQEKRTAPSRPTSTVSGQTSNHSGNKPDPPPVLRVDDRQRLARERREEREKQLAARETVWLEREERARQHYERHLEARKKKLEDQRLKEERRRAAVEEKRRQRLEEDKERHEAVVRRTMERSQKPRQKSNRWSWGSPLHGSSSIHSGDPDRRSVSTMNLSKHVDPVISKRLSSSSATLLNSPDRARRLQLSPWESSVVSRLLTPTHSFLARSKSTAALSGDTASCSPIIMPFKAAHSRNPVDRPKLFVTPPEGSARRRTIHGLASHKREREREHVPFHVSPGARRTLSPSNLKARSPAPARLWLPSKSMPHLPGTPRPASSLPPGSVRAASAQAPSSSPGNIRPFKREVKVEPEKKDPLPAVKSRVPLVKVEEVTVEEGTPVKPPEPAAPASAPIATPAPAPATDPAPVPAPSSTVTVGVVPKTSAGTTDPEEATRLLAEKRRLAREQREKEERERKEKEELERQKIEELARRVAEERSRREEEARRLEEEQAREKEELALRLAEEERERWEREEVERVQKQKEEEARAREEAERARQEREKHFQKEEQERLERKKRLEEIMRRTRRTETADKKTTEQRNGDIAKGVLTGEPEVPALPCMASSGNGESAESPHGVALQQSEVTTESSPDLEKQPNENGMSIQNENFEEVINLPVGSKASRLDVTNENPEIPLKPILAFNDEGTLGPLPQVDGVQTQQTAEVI

fold increase of kinesin-1 co-precipitated with GFP-MAP7 against wild-type or ElbowLock: 5 fold
Substance: DeltaElbow kinesin-1 complex (HA-KIF5C DeltaElbow / HA-KLC2) (from UniProt P56536 1-955; O88448 1-599)
